{"source": "ChEMBL document CHEMBL1155708", "about": "“Isoaurostatin, a novel topoisomerase inhibitor produced by Thermomonospora alba” (J Nat Prod, 2001)", "substrate": "O=C1Oc2cc(O)ccc2/C1=C\\c1ccc(O)cc1", "details": "Bos taurus", "description": "Activity at calf thymus gland topoisomerase 1 assessed as conversion of supercoiled pBR322 DNA to relaxed form by Lineweaver-Burke plot", "data": [{"protein": "DNA topoisomerase (Bos taurus), A0JN73 (protein) MIFPAAHRALRGLPRPGTRALTRAAMEVALRGVRKILCVAEKNDAAKGIADLLSGGRMRRREGLSRFNKIYEFDYHLCGQNVTMVMTSVSGHLLAHDFRMQFRKWQSCNPLVLFEAEIEKYCPENFVDIKKTLEREAQQCQALVIWTDCDREGENIGFEVIHVCKAVKPSLQVLRARFSEITTRAVRTACENLTEPDQRVSDAVDVRQELDLRIGAAFTRFQTLRLQKIFPEVLAEQLISYGSCQFPTLGFVVERFKAIQAFVPEVFHKIRVTHDHRDGVVEFSWKRHRLFNHTACLVLYQMCMEDPRAMVVEVRSKAKSKWRPQALDTVELEKLASRKLRINAKETMRIAEKLYTQGYISYPRTETNIFPKDLDLAALVEQQTPDPRWGAFARNILERGGPTPRNGNKSDQAHPPIHPTKYTDSLQGDEQRLYELIVRHFLACCSQDAQGQETTVEIDIAQERFVAHGLMILARNYLDVYPYDRWSDKTLPVYEQGTCFQPSTVEMVDGETSPPQLLTEADLIALMEKHGIGTDATHAEHIETIKARMYVGLTPDKRFLPGHLGMGLVEGYDSMGYEMSKPDLRAELEADLKLICEGKKDKLVVLHQQVQKYKQVFIEAVAKARKLDEALSQYFGAATEVAPQDALPAVPEPIRKCPQCSRDMVLKTRKSGGFYLGCTGFPECRSAVWFPDSVLEASRDVSVCPVCQPHPVYRLKFKFKRGSLPPTMPLEFVGCIGGCDETLREILALRFSQGAARVSQPASQTSGYLQASQSLNRMDSGQQGQPRPPVTRPSKALTRTLPPPAVESESNSVTCNCGQEALLLTVRKEGPNQGRQFYKCGSGGCSFFLWADSGHPGAGPPSSASRPPGGPLEHPPGSGTLLGGSSRPGSGGSGGASCLCGQPAVTRTVQKEGPNQGRQFHTCAQPREHQCGFFQWVDENVAPGTFGGPLWPGSRRGTQGLEARSKRPRAGSSDTGSATKKPRKCSLCHQPGHTRPFCPQNR", "values": [{"measurement": "Km", "result": 0.0111, "unit": "µM"}]}]}
